Patent US20250101108

Columns and labels:
PD-L1 = PD-L1 (UniProt Q9NZQ7)
PD-L1-FLAG = PD-L1-FLAG (UniProt Q9NZQ7)
PD-L2-FLAG = PD-L2-FLAG (UniProt Q9BQ51)
PD-L2-FLAG, sequence (Q9BQ51 20-273): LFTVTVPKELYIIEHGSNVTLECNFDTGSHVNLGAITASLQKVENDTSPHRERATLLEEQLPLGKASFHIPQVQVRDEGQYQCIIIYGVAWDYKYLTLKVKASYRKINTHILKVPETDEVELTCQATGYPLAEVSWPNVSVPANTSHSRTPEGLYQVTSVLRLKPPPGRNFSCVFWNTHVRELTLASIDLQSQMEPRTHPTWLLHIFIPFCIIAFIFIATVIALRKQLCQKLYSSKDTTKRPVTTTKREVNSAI

E3 ligase ITCH, sequence (chain, as listed by the source): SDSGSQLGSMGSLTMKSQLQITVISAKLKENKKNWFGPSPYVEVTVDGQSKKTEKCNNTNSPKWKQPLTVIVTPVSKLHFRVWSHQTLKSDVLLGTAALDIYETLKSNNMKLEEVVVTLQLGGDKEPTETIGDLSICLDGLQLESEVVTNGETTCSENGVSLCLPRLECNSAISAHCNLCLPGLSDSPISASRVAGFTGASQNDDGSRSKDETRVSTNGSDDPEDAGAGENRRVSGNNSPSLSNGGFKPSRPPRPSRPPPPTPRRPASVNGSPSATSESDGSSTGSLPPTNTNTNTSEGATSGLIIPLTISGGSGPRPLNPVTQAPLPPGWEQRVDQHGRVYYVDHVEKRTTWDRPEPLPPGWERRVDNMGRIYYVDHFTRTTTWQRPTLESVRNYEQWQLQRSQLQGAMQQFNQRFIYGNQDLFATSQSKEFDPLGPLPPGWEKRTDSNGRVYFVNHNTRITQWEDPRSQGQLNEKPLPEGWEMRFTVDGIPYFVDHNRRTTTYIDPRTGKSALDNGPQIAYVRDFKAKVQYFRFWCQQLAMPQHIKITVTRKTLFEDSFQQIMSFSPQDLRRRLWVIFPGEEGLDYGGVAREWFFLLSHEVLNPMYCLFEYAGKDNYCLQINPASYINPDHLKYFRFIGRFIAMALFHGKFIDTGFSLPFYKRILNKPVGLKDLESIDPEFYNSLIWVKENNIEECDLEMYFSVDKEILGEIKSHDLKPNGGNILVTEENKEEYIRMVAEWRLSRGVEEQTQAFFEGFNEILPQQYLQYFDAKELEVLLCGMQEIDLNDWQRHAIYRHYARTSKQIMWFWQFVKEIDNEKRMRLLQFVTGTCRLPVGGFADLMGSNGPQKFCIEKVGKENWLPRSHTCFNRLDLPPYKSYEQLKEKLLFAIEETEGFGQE
PD-L1-FLAG, sequence (Q9NZQ7 19-290): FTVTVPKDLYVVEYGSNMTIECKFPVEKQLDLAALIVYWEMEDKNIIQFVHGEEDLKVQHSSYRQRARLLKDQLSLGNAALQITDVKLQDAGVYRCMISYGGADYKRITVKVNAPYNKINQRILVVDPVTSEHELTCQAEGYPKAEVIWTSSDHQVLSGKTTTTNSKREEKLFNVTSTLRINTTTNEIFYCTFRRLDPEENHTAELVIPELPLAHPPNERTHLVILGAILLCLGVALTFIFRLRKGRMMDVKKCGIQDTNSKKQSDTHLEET
PD-L1, sequence (Q9NZQ7 19-290): as above

For E3 ligase ITCH, the “poly-ubiquitination of endogenous PD-L1 (anti-PD-L1 IP, Western blot of ubiquitin)” value (PD-L1) was “knockdown of endogenous ITCH reduced PD-L1 poly-ubiquitination (FIGS. 2F, 2G), while over-expression of ITCH increased PD-L1 poly-ubiquitination (FIG. 2H)”, the “poly-ubiquitination (anti-FLAG IP, Western blot of ubiquitin)” value (PD-L1-FLAG) was “co-transfection of ITCH with either PD-L1-FLAG (FIG. 2E) or PD-L2-FLAG (FIG. 9I) led to poly-ubiquitination of PD-L1 or PD-L2, respectively” and the “ubiquitination sites by mass spectrometry” value (PD-L1-FLAG) was “Mass spectrometry analysis identified lysine 46 (K46) and K162 of PD-L1 as major ubiquitination sites caused by ITCH over-expression in 293T cells”. The “poly-ubiquitination (anti-FLAG IP, Western blot of ubiquitin)” value (PD-L2-FLAG) was “co-transfection of ITCH with either PD-L1-FLAG (FIG. 2E) or PD-L2-FLAG (FIG. 9I) led to poly-ubiquitination of PD-L1 or PD-L2, respectively”.
